Assay [1] in a line: in vitro glucosylation activity (GlcT) of Escherichia coli-expressed UGT protein with UDP-glucose. It is filed as biochemical. The note with it: recombinant protein, 30° C. 1 hour, LC-MS. On the procedure:
(§1) The standard enzymatic reaction conditions are as follows. A reaction solution (2 mM UDP-glucose, 0.1 mM sugar receptor substrate, 100 mM potassium phosphate buffer (pH 7.5), 25 μl of purified enzyme solution) was prepared to 50 μl with distilled water and incubated at 30° C. for 1 hour to react. The LC-MS analysis of 5 μl of the enzymatic reaction solution was carried out under the following conditions.
(§2) • Column: Imtakt SM-C18 3.0 um 4.6 mm I.D.×250 mm • Mobile phase: A: MilliQ Water (+0.2% acetic acid), • B: Methanol • Gradient: 0 to 5 min (B conc 10% constant), 5 to 20 min (B conc 10%→70%), 20 to 25 min (B conc 70%→100%), 25 to 35 min (B conc 100% constant), 35 to 36 min (B conc 100%→10%), 45 min end of analysis • Flow rate: 0.4 mL/min • Column oven: 40° C.
(§3) Evaluation of Mutants 1 and 2 was then made using the protein expressed in Escherichia coli in the same manner as in Example 4. The glucosylation activity (GlcT) and the rhamnosylation activity (RhaT) were evaluated using UDP-glucose and UDP-rhamnose, respectively, as the sugar donor and using rubusoside as the substrate, which is a sugar receptor. Stevioside and dulcoside A were produced as the reaction products in the former and in the latter, respectively.

A short description of assay [2]: in vitro rhamnosylation activity (RhaT) of Escherichia coli-expressed UGT protein with UDP-rhamnose. Particulars: recombinant protein, LC-MS. It is filed as biochemical. On the procedure:
as §1, §2, §3

The subject of assay [3] is Saccharomyces cerevisiae strain YPH499. In words: Production of Reb.C from steviol in yeast coexpressing UGTs and AtRHM2. Type of assay: cell-based. Particulars: yeast coexpressing UGT85C2, UGT74G1, UGT76G1 and AtRHM2; 0.5 μg or 2 μg of steviol per 1 ml; HPLC, LC-MS. The source says:
[Example 5] RebC synthesis by fermentative production using yeast Various steviol glycosides were produced from steviol in yeast. First, yeast that simultaneously expresses the 4 glycosylation enzyme genes UGT85C2 (SEQ ID NO: 7), UGT91D2 (SEQ ID NO: 3), UGT74G1 (SEQ ID NO: 9), and UGT76G1 (SEQ ID NO: 11) or the 4 genes UGT85C2, UGT91D2L #16, UGT74G1, and UGT76G1 from Stevia rebaudiana and the UDP-rhamnose synthase gene AtRHM2 (SEQ ID NO: 13) from Arabidopsis thaliana has been created.
The plasmids set forth in Table 1 were introduced into the Saccharomyces cerevisiae strain YPH499 (ura3-52 lys2-801^amber ade2-101^ochre trp1-Δ63 his3-Δ200 leu2-Δ1 a) as a host by the lithium acetate method. Those that grew on SC-Trp&Ura&His agar medium (6.7 g of Yeast nitrogen base without amino acids, 20 g of glucose, 1.3 g of amino acid mixture powder Trp&Ura&His, 20 g of Bacto agar, per 1 L) were selected as transformant strains.
First, 10 ml of SC-Trp&Ura&His liquid medium (SC-Trp&Ura&His agar medium without Bacto agar) was inoculated each transformant strain as a preculture and cultured with shaking at 30° C. for 1 day. […]
The obtained glycoside sample was analyzed with high performance liquid chromatography (HPLC). […]

B1: UGT91D2: known Stevia rebaudiana UDP sugar-dependent glycosyltransferase, amino acid sequence SEQ ID NO: 4 (protein, listed as Stevia rebaudiana)
chain: MYNVTYHQNSKAMATSDSIVDDRKQLHVATFPWLAFGHILPYLQLSKLIAEKGHKVSFLSTTRNIQRLSSHISPLINVVQLTLPRVQELPEDAEATTDVHPEDIPYLKKASDGLQPEVTRFLEQHSPDWIIYDYTHYWLPSIAASLGISRAHFSVTTPWAIAYMGPSADAMINGSDGRTTVEDLTTPPKWFPFPTKVCWRKHDLARLVPYKAPGISDGYRMGLVLKGSDCLLSKCYHEFGTQWLPLLETLHQVPVVPVGLLPPEIPGDEKDETWVSIKKWLDGKQKGSVVYVALGSEVLVSQTEVVELALGLELSGLPFVWAYRKPKGPAKSDSVELPDGFVERTRDRGLVWTSWAPQLRILSHESVCGFLTHCGSGSIVEGLMFGHPLIMLPIFGDQPLNARLLEDKQVGIEIPRNEEDGCLTKESVARSLRSVVVEKEGEIYKANARELSKIYNDTKVEKEYVSQFVDYLEKNARAVAIDHES
On to B1, for which, in assay [1], the “activity to glucosylate rubusoside to produce stevioside” value was “production of stevioside”. In assay [2], the “activity to rhamnosylate rubusoside to produce dulcoside A” value is given as “production of dulcoside A”. Moreover, in assay [3], the “amount of Reb.C produced” value is “Reb.C was produced”.

B2: UGT91D2L #16: novel Stevia rebaudiana UGT highly homologous with UGT91D2, amino acid sequence SEQ ID NO: 2 (protein, listed as Stevia rebaudiana)
chain: MYNVTYHQNSKAMATSDSIVDDRKQLHVATFPWLAFGHILPFLQLSKLIAEKGHKVSFLSTTRNIQRLSSHISPLINVVQLTLPRVQELPEDAEATTDVHPEDIPYLKKASDGLQPEVTRFLEQHSPDWIIYDYTHYWLPSIAASLGISRAHFSVVTPWAIAYMGPSADAMINGSDGRTTVEDLTTPPKWFPFPTKVCWRKHDLARLVPYKAPGISDGYRMGLVLKGSDCLLFKCYHEFGTQWLPLLETLHQVPVVPVGLLPPEIPGDEKDETWVSIKKWLDGKQKGSVVYVALGSEALVSQTEVVELALGLELSGLPFVWAYRKPKGPAKSDSVELPDGFVERTRDRGLVWTSWAPQLRILSHESVCGFLTHCGSGSIVEGLMFGHPLIMLPLFGDQPLNARLLEDKQVGIEIPRNEEDGCLTKESVARSLRSVVVENEGEIYKANARELSKIYNDTKVEKEYVSQFVDFLEKNARAVAIDHES
Consider B2, for which the “activity to glucosylate rubusoside to produce stevioside” value in assay [1] is listed as “weaker than SrUGT91D2”. Further, in assay [2], the “activity to rhamnosylate rubusoside to produce dulcoside A” value is listed as “markedly higher than SrUGT91D2”. Further, the “amount of Reb.C produced” value in assay [3] is reported as “higher than that in the strain A-5678 expressing UGT91D2”.

Values taken from patent US20230340429A1, “STEVIOL GLYCOSIDE HEXOSE TRANSFERASE AND GENE CODING FOR SAME” (SUNTORY HOLDINGS LIMITED, priority 2016, published 2023).
